Laboratory results published in patent publication US20250154198A1, “PEPTIDE INHIBITORS OF INTERLEUKIN-23 RECEPTOR” (Zealand Pharma A/S, priority 2021, published 2025).
Where two headings read alike, the source gives them in different places. *1 amine or outer side, *2 acyl side, *3 side chain or, on linkers, in order; H or OH if unused. Bridges are numbered along the chain shown (N, C = ends). Primed or numbered codes have the meaning given here. [ ]: non-standard residue; d: D form. 4‑Aminomethyl‑phenylacetyl = 4-aminomethyl-phenylacetyl unit, its amine closes the lactam, O=C(Cc1ccc(CN[*:1])cc1)[*:2]; 1,3‑dibromopropan‑2‑one = linker (CAS 816-39-7) joining two Cys as 1,3-dithio-propan-2-one bridge -SCH2C(=O)CH2S-; 1,3‑dibromopropan‑2‑one(3) = linker giving 1,3-dithio-propan-2-one bridge -SCH2C(=O)CH2S- between Cys; 2Nal = N[C@@H](Cc1ccc2ccccc2c1)C(=O)O; AEF = NCCOc1ccc(C[C@H](N)C(=O)O)cc1; 3Pal = N[C@@H](Cc1cccnc1)C(=O)O; αMeL = CC(C)C[C@](C)(N)C(=O)O; Dab = NCC[C@H](N)C(=O)O

T1: Nluc-IL23R fusion protein (human, UniProt Q5VWK5 22-629)
T1 construct: range 22-629; Stably expressed in HEK293 cells; also called hIL-23R; human IL-23R fused to a Nanoluc luciferase enzyme; not shown: Nanoluc luciferase (Promega N1371 plasmid) at the N-terminus
T1 sequence (looked up): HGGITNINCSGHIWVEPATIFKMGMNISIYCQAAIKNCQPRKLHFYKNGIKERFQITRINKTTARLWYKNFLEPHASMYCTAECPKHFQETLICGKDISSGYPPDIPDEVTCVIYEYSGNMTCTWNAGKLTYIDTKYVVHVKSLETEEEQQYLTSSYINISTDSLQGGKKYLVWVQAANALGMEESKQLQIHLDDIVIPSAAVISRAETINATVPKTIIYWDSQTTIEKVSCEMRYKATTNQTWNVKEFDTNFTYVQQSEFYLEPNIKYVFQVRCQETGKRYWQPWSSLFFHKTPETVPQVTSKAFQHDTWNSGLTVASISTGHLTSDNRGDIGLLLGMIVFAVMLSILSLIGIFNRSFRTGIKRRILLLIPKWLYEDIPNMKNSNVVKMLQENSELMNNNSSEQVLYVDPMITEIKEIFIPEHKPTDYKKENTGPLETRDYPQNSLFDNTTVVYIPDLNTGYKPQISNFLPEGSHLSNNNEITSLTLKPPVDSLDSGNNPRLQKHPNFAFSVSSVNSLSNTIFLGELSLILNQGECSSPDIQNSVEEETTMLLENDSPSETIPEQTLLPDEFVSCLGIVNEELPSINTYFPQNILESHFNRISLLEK

T2: human IL-23R endogenously expressed on DB cells (CRL-2289) (human, UniProt Q5VWK5 24-629)
T2 sequence (looked up): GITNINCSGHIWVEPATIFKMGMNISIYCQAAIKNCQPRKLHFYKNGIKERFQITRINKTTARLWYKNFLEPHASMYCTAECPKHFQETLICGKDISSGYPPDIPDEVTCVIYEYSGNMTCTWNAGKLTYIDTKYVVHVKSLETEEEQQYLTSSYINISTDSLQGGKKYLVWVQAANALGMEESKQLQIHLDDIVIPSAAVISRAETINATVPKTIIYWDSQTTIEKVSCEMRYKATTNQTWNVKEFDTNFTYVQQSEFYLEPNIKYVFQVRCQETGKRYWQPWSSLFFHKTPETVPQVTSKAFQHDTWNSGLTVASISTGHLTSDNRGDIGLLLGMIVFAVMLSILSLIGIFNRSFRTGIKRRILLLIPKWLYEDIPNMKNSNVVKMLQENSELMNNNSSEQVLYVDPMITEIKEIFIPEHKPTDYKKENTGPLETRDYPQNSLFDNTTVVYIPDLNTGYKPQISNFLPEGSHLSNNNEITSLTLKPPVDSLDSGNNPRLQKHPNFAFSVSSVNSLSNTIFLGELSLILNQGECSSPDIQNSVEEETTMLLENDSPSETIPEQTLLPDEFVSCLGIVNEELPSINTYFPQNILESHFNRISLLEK

B1: Compound 137 (peptide)
peptide: [4‑Aminomethyl‑phenylacetyl]SEWQ[Dab][AEF][2Nal][αMeL]E-{NH‑3‑aminopropanoyl}
modifications: lactam N-10, 3-6
B2: Compound 10 (peptide)
peptide: Ac-ESCWQCWWLKR-NH2
modifications: lactam 1-10; linker 3-6 via 1,3‑dibromopropan‑2‑one
B3: Compound 20 (peptide)
peptide: Ac-DKSCWQCW[2Nal]LER-NH2
modifications: lactam 2-11; bridge 4-7; not fully specified (bridges); printed as [Ac]-DK(1c)SC(2d)WQC(2d)W[2-Nal]LE(1c)R-[NH2]
B4: Compound 21 (peptide)
peptide: Ac-DKSCWQCW[2Nal]LER-NH2
modifications: lactam 2-11; bridge 4-7; not fully specified (bridges); printed as [Ac]-DK(1c)SC(2e)WQC(2e)W[2-Nal]LE(1c)R-[NH2]
B5: Compound 16 (peptide)
peptide: DESCXQCWWLKR
HELM: PEPTIDE1{[ac].D.E.S.C.[Cc1cccc2c(C[C@H](N[*:1])C(=O)[*:2])c[nH]c12].Q.C.W.W.L.K.R.[am]}|CHEM1{[O=C(C[*:1])C[*:2]]}$PEPTIDE1,PEPTIDE1,3:R3-12:R3|PEPTIDE1,CHEM1,5:R3-1:R1|PEPTIDE1,CHEM1,8:R3-1:R2$$$V2.0
SMILES: CC(=O)N[C@@H](CC(=O)O)C(=O)N[C@H]1CCC(=O)NCCCC[C@@H](C(=O)N[C@@H](CCCNC(=N)N)C(N)=O)NC(=O)[C@H](CC(C)C)NC(=O)[C@H](Cc2c[nH]c3ccccc23)NC(=O)[C@H](Cc2c[nH]c3ccccc23)NC(=O)[C@@H]2CSCC(=O)CSC[C@H](NC(=O)[C@H](CO)NC1=O)C(=O)N[C@@H](Cc1c[nH]c3c(C)cccc13)C(=O)N[C@@H](CCC(N)=O)C(=O)N2
B6: Compound 22 (peptide)
peptide: Ac-DKSCWQCW[2Nal]LER-NH2
modifications: lactam 2-11; bridge 4-7; not fully specified (bridges); printed as [Ac]-DK(1c)SC(2f)WQC(2f)W[2-Nal]LE(1c)R-[NH2]
B7: Compound 7 (peptide)
peptide: Ac-DKSCWQCWWLER-NH2
modifications: lactam 2-11; linker 4-7 via 1,3‑dibromopropan‑2‑one
B8: Compound 155 (peptide)
peptide: Ac-KTCWQC[AEF][2Nal][αMeL]E[Dab][3Pal]-NH2
modifications: lactam 1-10; linker 3-6 via 1,3‑dibromopropan‑2‑one(3)

Assays:
[1] = target: T1, Nluc-IL23R fusion protein; assay: BRET displacement of TAMRA-labelled peptide, Nluc-IL23R membranes
[2] = target: T2, human IL-23R endogenously expressed on …; assay: cell-based or functional assay
[3] = target: T2, human IL-23R endogenously expressed on …; assay: cell-based or functional assay; remark: listed apart in the source
[4] = target: T2, human IL-23R endogenously expressed on …; assay: cell-based or functional assay; remark: listed apart in the source
[5] = target: T2, human IL-23R endogenously expressed on …; assay: cell-based or functional assay; remark: listed apart in the source
[6] = target: T2, human IL-23R endogenously expressed on …; assay: cell-based or functional assay; remark: listed apart in the source

Row | Binder | IC50 (pSTAT3) [2] | IC50 (pSTAT3) [4] | other results
1 | B1 | 24.1 nM | – | Ki [1]: 0.518 nM
2 | B2 | 617 nM | – | IC50 (pSTAT3) [3]: 617 nM
3 | B3 | 79.2 nM | 79.2 nM | –
4 | B4 | > 1 µM | > 1 µM | –
5 | B5 | 461 nM | – | IC50 (pSTAT3) [5]: 461 nM
6 | B6 | > 1 µM | > 1 µM | –
7 | B7 | 159 nM | – | IC50 (pSTAT3) [6]: 159 nM
8 | B8 | 0.0305 nM | – | Ki [1]: 0.00805 nM
